T1: human TL1A extracellular domain with N-terminal HIS and FLAG tag (human) (UniProt O95150)
T1 sequence: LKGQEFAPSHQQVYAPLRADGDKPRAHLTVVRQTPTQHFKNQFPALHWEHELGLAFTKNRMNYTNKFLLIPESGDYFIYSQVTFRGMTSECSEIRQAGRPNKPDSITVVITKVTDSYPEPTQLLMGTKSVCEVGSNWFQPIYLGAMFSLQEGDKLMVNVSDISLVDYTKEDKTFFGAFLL

T2: human TL1A extracellular domain with N-terminal HIS and FLAG tag (human, UniProt O95150 72-251)
T2 construct: whole entry named. ~70 kDa fraction purified by gel filtration
T2 sequence: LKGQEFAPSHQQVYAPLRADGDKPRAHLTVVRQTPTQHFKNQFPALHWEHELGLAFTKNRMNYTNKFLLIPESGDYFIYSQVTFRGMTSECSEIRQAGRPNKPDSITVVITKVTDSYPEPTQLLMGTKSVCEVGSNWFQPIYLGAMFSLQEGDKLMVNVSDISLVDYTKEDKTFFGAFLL

T3: human TL1A extracellular domain with N-terminal HIS and FLAG tag (human, UniProt O95150 72-251)
T3 sequence: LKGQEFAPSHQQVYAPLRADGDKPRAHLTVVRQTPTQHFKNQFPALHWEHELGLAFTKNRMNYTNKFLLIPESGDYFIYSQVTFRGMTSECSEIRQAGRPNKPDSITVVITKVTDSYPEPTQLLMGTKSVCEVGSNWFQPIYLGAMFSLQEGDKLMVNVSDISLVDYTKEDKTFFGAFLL


What was measured:
[1] = molecular target: T1, human TL1A extracellular domain with N-terminal HIS and FLAG tag (human); test: cell-based or functional assay
[2] = molecular target: T2, human TL1A extracellular domain with …; test: SPR run 2; supernatant on Protein A; TL1A 10 ug/mL; timepoint 44
Procedure, shortened: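 The capture level was the response change at the end of loading, which varied by run. Antigen response was read before dissociation ended, double-referenced against a reference flow cell and a buffer blank.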

[3] = molecular target: T2, human TL1A extracellular domain with …; test: SPR run 2; supernatant on Protein A; TL1A 10 ug/mL; timepoint 220
Procedure, shortened: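 CM5 chip, amine-coupled Protein A; capture of supernatant or purified Ab (load varies per run); capture level = ΔRU at end of injection; binding RU read late in dissociation; double referencing (reference cell + buffer blank).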

[4] = molecular target: T2, human TL1A extracellular domain with …; test: SPR run 2; purified antibody on Protein A; TL1A 10 ug/mL; timepoint 44
Text: (§1) 1.5. Antibody expression and antigen binding as determined by SPR. Using a CM5 sensor chip (GE Healthcare) Protein A (Pierce) was coupled to the chip surface using an amine coupling kit (GE Healthcare). Protein A was coupled on flow cell 1 and 2 (or alternatively 3 and 4) using a BIACORE® T200. […] The amount of supernatant or purified protein (as well as the concentration) injected during the capture stage varied between runs and is specified in the header of the Tables 3-11. At the end of injection of the supernatant or purified antibody the change in response units was measured. This value was reported as Capture Level in Tables 3-11. […] The response units were measured prior to the end of the dissociation phase. […] The sensorgrams were double referenced (flow cell 2 is subtracted from flow cell 1 and a buffer blank). As there were a large number of antibody variants to screen, these were screened across different runs (Tables 3-11). […] A summary of the conditions used in each run is below:
(§2) 2.1. […] In some experiment the antibodies were purified using Protein A chromatography (See 1.4) and purified antibodies were used in BIACORE® (GE Healthcare) experiments.

[5] = molecular target: T2, human TL1A extracellular domain with …; test: SPR run 2; purified antibody on Protein A; TL1A 10 ug/mL; timepoint 590
Text: as §1, §2

[6] = molecular target: T3, human TL1A extracellular domain with …; test: cell-based or functional assay
[7] = molecular target: T3, human TL1A extracellular domain with …; test: SPR Run 8, antibody on Protein A, TL1A 5 ug/mL, timepoint 44
Text: as §1, §2

[8] = molecular target: T3, human TL1A extracellular domain with …; test: SPR Run 8, antibody on Protein A, TL1A 5 ug/mL, timepoint 590
Text: as §1, §2

Binder | Antibody IC50, TL1A induced caspase potency assay in TF-1 cells [1] [ng/mL] | Fold improvement over 320-179, TL1A induced caspase potency assay in TF-1 cells [1] [fold] | TL1A Binding Level (Early) [2] [RU] | TL1A Binding Level (Late) [3] [RU] | TL1A Binding Level (Early) [4] [RU] | TL1A Binding Level (Late) [5] [RU] | Antibody IC50, TL1A induced caspase potency assay in TF-1 cells [6] [ng/mL] | Fold improvement over 320-179, TL1A induced caspase potency assay in TF-1 cells [6] [fold] | TL1A Binding Level (Early) [7] [RU] | TL1A Binding Level (Late) [8] [RU]
320-201 (antibody, human IgG1, name in Kabat numbering, V domains shown, human IgG1, lambda) VH: QVQLVQSGAEVKKPGASVKVSCKASGYTFTSYDINWVRQAPGQGLEWMGWLNPNSGNTGYAQKFQGRVTMTADRSTSTAYMELSSLRSEDTAVYYCAREVPETAAFEYWGQGTLVTVSS VL: QSVLTQPPSVSGAPGQRVTISCTASSSDIGAGLGVHWYQQLPGTAPKLLIEGYYNRPSGVPDRFSGSKSGTSASLTITGLLPEDEGDYYCQSYDGTLSALFGGGTKLTVLG | 5 | 2 | 274 | 252 | 73 | 57 | – | – | – | –
320-589 (antibody, human IgG1, name in Kabat numbering, V domains shown, full-length human IgG1, lambda) VH: QVQLVQSGAEVKKPGASVKVSCKASGYTFTSYDINWVRQAPGQGLEWMGWLNPNSGYTGYAQKFQGRVTMTADRSTSTAYMELSSLRSEDTAVYYCAREVPETAAFEYWGQGTLVTVSS VL: QSVLTQPPSVSGAPGQRVTISCTSSSSDIGAGSGVHWYQQLPGTAPKLLIEGYYNRPSGVPDRFSGSKSGTSASLTITGLLPEDEGDYYCQSYDGTLSALFGGGTKLTVLG | – | – | – | – | – | – | 20 | 1 | 120 | 109
320-588 (antibody, human IgG1, name in Kabat numbering, V domains shown, full-length human IgG1, lambda) VH: QVQLVQSGAEVKKPGASVKVSCKASGYTFTSYDINWVRQAPGQGLEWMGWLNPNSGYTGYAQKFQGRVTMTADRSTSTAYMELSSLRSEDTAVYYCAREVPETAAFEYWGQGTLVTVSS VL: QSVLTQPPSVSGAPGQRVTISCTSSSSDIGAALGVHWYQQLPGTAPKLLIEGYYNRPSGVPDRFSGSKSGTSASLTITGLLPEDEGDYYCQSYDGTLSALFGGGTKLTVLG | – | – | – | – | – | – | 4 | 5 | 128 | 123
320-584 (antibody, human IgG1, name in Kabat numbering, V domains shown, full-length human IgG1, lambda) VH: QVQLVQSGAEVKKPGASVKVSCKASGYTFTSYDINWVRQAPGQGLEWMGWLNPNSGNTGYAQKFQGRVTMTADRSTSTAYMELSSLRSEDTAVYYCAREVPETAAFEYWGQGTLVTVSS VL: QSVLTQPPSVSGAPGQRVTISCTSSSSDIGAGSGVHWYQQLPGTAPKLLIEGYYNRPSGVPDRFSGSKSGTSASLTITGLLPEDEGDYYCQSWDGTLSALFGGGTKLTVLG | – | – | – | – | – | – | 8 | 10 | 103 | 98
320-211 (antibody, human IgG1, name in Kabat numbering, V domains shown, human IgG1, lambda) VH: QVQLVQSGAEVKKPGASVKVSCKASGYTFTSYDINWVRQAPGQGLEWMGWLNPNSGNTGYAQKFQGRVTMTADRSTSTAYMELSSLRSEDTAVYYCAREVPETAAFEYWGQGTLVTVSS VL: QSVLTQPPSVSGAPGQRVTISCTSDSSDIGAGLGVHWYQQLPGTAPKLLIEGYYNRPSGVPDRFSGSKSGTSASLTITGLLPEDEGDYYCQSYDGTLSALFGGGTKLTVLG | 10 | 3 | 206 | 164 | 80 | 64 | – | – | – | –
320-585 (antibody, human IgG1, name in Kabat numbering, V domains shown, full-length human IgG1, lambda) VH: QVQLVQSGAEVKKPGASVKVSCKASGYTFTSYDINWVRQAPGQGLEWMGWLNPNSGNTGYAQKFQGRVTMTADRSTSTAYMELSSLRSEDTAVYYCAREVPETAAFEYWGQGTLVTVSS VL: QSVLTQPPSVSGAPGQRVTISCTSSSSDIGAGQGVHWYQQLPGTAPKLLIEGYYNRPSGVPDRFSGSKSGTSASLTITGLLPEDEGDYYCQSWDGTLSALFGGGTKLTVLG | – | – | – | – | – | – | 3 | 13 | 116 | 109
320-237 (antibody, human IgG1, name in Kabat numbering, V domains shown, human IgG1, lambda) VH: QVQLVQSGAEVKKPGASVKVSCKASGYTFTSYDINWVRQAPGQGLEWMGWLNPNSGNTGYAQKFQGRVTMTADRSTSTAYMELSSLRSEDTAVYYCAREVPETAAFEYWGQGTLVTVSS VL: QSVLTQPPSVSGAPGQRVTISCTSSSSKIGAGLGVHWYQQLPGTAPKLLIEGYYNRPSGVPDRFSGSKSGTSASLTITGLLPEDEGDYYCQSYDGTLSALFGGGTKLTVLG | – | – | 240 | 221 | 10 | 8 | – | – | – | –
320-583 (antibody, human IgG1, name in Kabat numbering, V domains shown, full-length human IgG1, lambda) VH: QVQLVQSGAEVKKPGASVKVSCKASGYTFTSYDINWVRQAPGQGLEWMGWLNPNSGNTGYAQKFQGRVTMTADRSTSTAYMELSSLRSEDTAVYYCAREVPETAAFEYWGQGTLVTVSS VL: QSVLTQPPSVSGAPGQRVTISCTSSSSDIGAALGVHWYQQLPGTAPKLLIEGYYNRPSGVPDRFSGSKSGTSASLTITGLLPEDEGDYYCQSWDGTLSALFGGGTKLTVLG | – | – | – | – | – | – | 3 | 27 | 108 | 103
320-213 (antibody, human IgG1, name in Kabat numbering, V domains shown, human IgG1, lambda) VH: QVQLVQSGAEVKKPGASVKVSCKASGYTFTSYDINWVRQAPGQGLEWMGWLNPNSGNTGYAQKFQGRVTMTADRSTSTAYMELSSLRSEDTAVYYCAREVPETAAFEYWGQGTLVTVSS VL: QSVLTQPPSVSGAPGQRVTISCTSKSSDIGAGLGVHWYQQLPGTAPKLLIEGYYNRPSGVPDRFSGSKSGTSASLTITGLLPEDEGDYYCQSYDGTLSALFGGGTKLTVLG | 70 | 0 | 218 | 194 | 79 | 65 | – | – | – | –
320-205 (antibody, human IgG1, name in Kabat numbering, V domains shown, human IgG1, lambda) VH: QVQLVQSGAEVKKPGASVKVSCKASGYTFTSYDINWVRQAPGQGLEWMGWLNPNSGNTGYAQKFQGRVTMTADRSTSTAYMELSSLRSEDTAVYYCAREVPETAAFEYWGQGTLVTVSS VL: QSVLTQPPSVSGAPGQRVTISCTKSSSDIGAGLGVHWYQQLPGTAPKLLIEGYYNRPSGVPDRFSGSKSGTSASLTITGLLPEDEGDYYCQSYDGTLSALFGGGTKLTVLG | 20 | 2 | 290 | 271 | 70 | 51 | – | – | – | –
320-586 (antibody, human IgG1, name in Kabat numbering, V domains shown, full-length human IgG1, lambda) VH: QVQLVQSGAEVKKPGASVKVSCKASGYTFTSYDINWVRQAPGQGLEWMGWLNPNSGNTGYAQKFQGRVTMTADRSTSTAYMELSSLRSEDTAVYYCAREVPETAAFEYWGQGTLVTVSS VL: QSVLTQPPSVSGAPGQRVTISCTSSSSDIGAGLGVLWYQQLPGTAPKLLIEGYYNRPSGVPDRFSGSKSGTSASLTITGLLPEDEGDYYCQSWDGTLSALFGGGTKLTVLG | – | – | – | – | – | – | 2 | 25 | 108 | 103
